Here are results for one molecule from US20160237143A1 (OSTERREICHISCHE AKADEMIE DER WISSENSCHAFTEN, published 2016).

Substitutions are numbered along the chain they refer to.

The target in assay [1] is T1, HPV 16 E7 derived synthetic 13mer peptide 43 (amino acids 85 to 97) (human papillomavirus type 16).
T1 construct: Immobilised on a peptide microarray
T1 peptide: GTLGIVCPICSQK
The assay can be described thus: peptide microarray, anti-rabbit-Cy5.
Procedure: HPV 16 E7 epitopes were analyzed by JPT Peptide Technologies GmbH (Berlin, Germany) using peptide microarrays. […] The determination of peptide-antibody binding was performed by RepliTope-analysis where the peptide microarray was incubated with the primary antibody followed by a fluorescently labelled secondary antibody (anti-rabbit-Cy5). After washing the peptide microarrays were dried using a microarray centrifuge and scanned in a high resolution microarray scanning system with appropriate wavelength settings.

Assay [2] deals with T2, HPV 16 E7 derived synthetic 13mer peptide 44 (amino acids 86 to 98) (human papillomavirus type 16).
T2 construct: Immobilised on a peptide microarray
T2 peptide: TLGIVCPICSQKP
The assay can be described thus: peptide microarray, anti-rabbit-Cy5.

The target in another assay is T3, HPV 11 E7 protein (human papillomavirus type 11, UniProt P04020 1-98).
T3 construct: also called low-risk HPV type 11 E7
T3 sequence: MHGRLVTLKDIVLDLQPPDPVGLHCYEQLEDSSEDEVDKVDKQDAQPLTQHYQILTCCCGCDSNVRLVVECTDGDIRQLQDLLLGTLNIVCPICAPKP
As to the kind of experiment: direct ELISA, coated recombinant E7, biotinylated antibody. (In general: An ELISA detects its analyte on a solid surface through an enzyme-linked reagent.)

For another assay, the target named is T4, HPV 18 E7 protein (human papillomavirus type 18, UniProt P06788 1-105).
T4 construct: also called E7 protein of HPV 18
T4 sequence: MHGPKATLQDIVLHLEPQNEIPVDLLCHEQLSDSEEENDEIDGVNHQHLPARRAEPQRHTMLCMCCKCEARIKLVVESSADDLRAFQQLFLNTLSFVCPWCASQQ
The assay can be described thus: confocal immunofluorescence on U-2OS cells overexpressing E7.

In another assay the target is T5, HPV 45 E7 protein (human papillomavirus type 45, UniProt P21736 1-106).
T5 construct: also called E7 protein of HPV 45
T5 sequence: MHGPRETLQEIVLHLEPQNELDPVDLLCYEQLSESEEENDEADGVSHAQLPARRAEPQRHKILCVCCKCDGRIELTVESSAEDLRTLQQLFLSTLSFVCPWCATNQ
Described as above.

The next assay deals with T6, HPV 16 E7 mutant C58G (human papillomavirus type 16, UniProt P03129 1-98).
T6 sequence: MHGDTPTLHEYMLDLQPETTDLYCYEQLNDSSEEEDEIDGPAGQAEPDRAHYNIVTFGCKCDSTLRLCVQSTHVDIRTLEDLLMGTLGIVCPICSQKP
As to the kind of experiment: indirect immunofluorescence on transiently transfected U-2OS cells.

The next assay has as its target T7, HPV 16 E7 mutant C91G (human papillomavirus type 16, UniProt P03129 1-98).
T7 sequence: T6 sequence with G58C, C91G
Described as above.

The target of assay [3] is T8, HPV 16 E7 mutant C58G/C91G (human papillomavirus type 16, UniProt P03129 1-98).
T8 sequence: T6 sequence with C91G
The description is as above.

B1: monoclonal anti-HPV 16 E7 antibody of the present invention (rabbit monoclonal, hybridoma Klon 42-3-78, DSM ACC3034) (antibody, V domains shown)
VH: QSLEESGGRLVTPGGSLTLTCTVSGIDLSTYEISWVRQAPGKGLEWIGIIGTSANTVYASWAKGRFTISKSSTTVDLRVTSLTTEDTATYFCARAYDEYGIHAFHPWGPGTLVTVSS
VL: AQVLTQTPSPVSAAVGGTVTINCQASQSVYNAKNLAWYQQKPGQPPKLLIYQASTLASGVPSRFKGSGSGTQFTLTISGVQCDDAATYYCQGEFSCSSADCNVFGGGTEVVVKG
notes: Rabbit IgG purified from hybridoma supernatant on Protein G; used plain or biotinylated; also called monoclonal antibody against HPV 16 E7; RabMab
Consider B1, for which the binding result is “binds” in assay [1]; “binds” in assay [2]; “no binding (tested: 2.5 and 10 ng coated E7 protein)” with HPV 11 E7 protein; “no binding (tested: 25 µg/ml)” with HPV 18 E7 protein; “no binding (tested: 25 µg/ml)” with HPV 45 E7 protein; “no binding” in the assay with HPV 16 E7 mutant C58G. Further, the binding result (with HPV 16 E7 mutant C91G; in assay [3]) was “no binding” each time.
